# Laboratory results published in patent US20200038493.
# Legend:
# [1] = target: UbcH5b (E2 ubiquitin-conjugating enzyme), P62837
# [2] = target: GST-tagged PKN1, Q16512
# GST-tagged PKN1, Q16512, sequence (Q16512 whole entry, looked up): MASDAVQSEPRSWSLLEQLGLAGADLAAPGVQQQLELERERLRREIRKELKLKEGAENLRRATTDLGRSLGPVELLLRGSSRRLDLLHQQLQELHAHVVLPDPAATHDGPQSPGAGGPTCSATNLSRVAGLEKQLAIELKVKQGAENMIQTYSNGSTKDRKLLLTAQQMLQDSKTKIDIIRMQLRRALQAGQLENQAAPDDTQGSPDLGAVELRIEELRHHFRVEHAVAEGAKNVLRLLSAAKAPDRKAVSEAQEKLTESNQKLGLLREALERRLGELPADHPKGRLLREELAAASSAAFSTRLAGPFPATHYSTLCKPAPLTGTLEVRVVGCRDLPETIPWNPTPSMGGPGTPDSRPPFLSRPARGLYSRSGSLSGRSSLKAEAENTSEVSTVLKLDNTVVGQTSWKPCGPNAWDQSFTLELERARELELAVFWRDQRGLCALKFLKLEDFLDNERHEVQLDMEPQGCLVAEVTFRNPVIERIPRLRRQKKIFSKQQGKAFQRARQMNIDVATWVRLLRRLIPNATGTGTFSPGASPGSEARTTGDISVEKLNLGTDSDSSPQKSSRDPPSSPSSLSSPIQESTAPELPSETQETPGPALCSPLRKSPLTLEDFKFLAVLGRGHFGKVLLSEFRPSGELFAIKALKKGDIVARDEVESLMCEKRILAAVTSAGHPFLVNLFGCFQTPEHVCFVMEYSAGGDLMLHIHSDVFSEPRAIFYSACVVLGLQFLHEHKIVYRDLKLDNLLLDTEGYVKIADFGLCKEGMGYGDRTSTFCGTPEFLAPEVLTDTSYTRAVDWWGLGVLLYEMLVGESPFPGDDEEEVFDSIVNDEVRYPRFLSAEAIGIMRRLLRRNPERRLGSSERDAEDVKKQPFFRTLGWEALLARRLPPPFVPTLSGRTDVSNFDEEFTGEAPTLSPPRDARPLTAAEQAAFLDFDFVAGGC
# UbcH5b (E2 ubiquitin-conjugating enzyme), P62837, sequence (P62837 whole entry, looked up): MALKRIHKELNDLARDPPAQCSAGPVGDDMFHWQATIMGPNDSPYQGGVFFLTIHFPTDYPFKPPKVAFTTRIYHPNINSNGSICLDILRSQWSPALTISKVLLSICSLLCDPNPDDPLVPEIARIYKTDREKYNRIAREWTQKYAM
Protein,"in vitro ubiquitination assay, anti-HA western blot [1]",other results
recombinant IpaH2.5 from Shigella flexneri (protein) MIKSTNIQVIGSGIMHQINNIHSLTLFSLPVSLSPSCNEYYLKVWSEWEKNGTPGEQRNIAFNRLKICLQNQEAELNLSELDLKTLPDLPPQITTLEIRKNLLTHLPDLPPMLKVIHAQFNQLESLPALPETLEELNAGDNKIKELPFLPENLTHLRVHNNRLHILPLLPPELKLLVVSGNRLDSIPPFPDKLEGLALANNFIEQLPELPFSMNRAVLMNNNLTTLPESVLRLAQNAFVNVAGNPLSGHTMRTLQQITTGPDYSGPRIFFSMGNSATISAPEHSLADAVTAWFPENKQSDVSQIWHAFEHEEHANTFSAFLDRLSDTVSARNTSGFREQVAAWLEKLSASAELRQQSFAVAADATESCEDRVALTWNNLRKTLLVHQASEGLFDNDTGALLSLGREMFRLEILEDIARDKVRTLHFVDEIEVYLAFQTMLAEKLQLSTAVKEMRFYGVSGVTANDLRTAEAMVRSREENEFTDWFSLWGPWHAVLKRTEADRWAQAEEQKYEMLENEYSQRVADRLKASGLSGDADAEREAGAQVMRETEQQIYRQLTDEVLAHHHHHH,have the ability to remove ubiquitin from ubiquitinated UbcH5b in order to form poly-ubiquitin chains of the HA-tagged ubiquitin,–
recombinant IpaH9.8 from Shigella flexneri (protein) MLPINNNFSLPQNSFYNTISGTYADYFSAWDKWEKQALPGEERDEAVSRLKECLINNSDELRLDRLNLSSLPDNLPAQITLLNVSYNQLTNLPELPVTLKKLYSASNKLSELPVLPPALESLQVQHNELENLPALPDSLLTMNISYNEIVSLPSLPQALKNLRATRNFLTELPAFSEGNNPVVREYFFDRNQISHIPESILNLRNECSIHISDNPLSSHALQALQRLTSSPDYHGPRIYFSMSDGQQNTLHRPLADAVTAWFPENKQSDVSQIWHAFEHEEHANTFSAFLDRLSDTVSARNTSGFREQVAAWLEKLSASAELRQQSFAVAADATESCEDRVALTWNNLRKTLLVHQASEGLFDNDTGALLSLGREMFRLEILEDIARDKVRTLHFVDEIEVYLAFQTMLAEKLQLSTAVKEMRFYGVSGVTANDLRTAEAMVRSREENEFTDWFSLWGPWHAVLKRTEADRWAQAEEQKYEMLENEYPQRVADRLKASGLSGDADAEREAGAQVMRETEQQIYRQLTDEVLALRLFENGSQLHHSHHHHHH,have the ability to remove ubiquitin from ubiquitinated UbcH5b in order to form poly-ubiquitin chains of the HA-tagged ubiquitin,–
recombinant SlrP from Salmonella enterica serovar Typhimurium (protein) MFNITNIQSTARHQSISNEASTEVPLKEEIWNKISAFFSSEHQVEAQNCIAYLCHPPETASPEEIKSKFECLRMLAFPAYADNIQYSRGGADQYCILSENSQEILSIVFNTEGYTVEGGGKSVTYTRVTESEQASSASGSKDAVNYELIWSEWVKEAPAKEAANREEAVQRMRDCLKNNKTELRLKILGLTTIPAYIPEQITTLILDNNELKSLPENLQGNIKTLYANSNQLTSIPATLPDTIQEMELSINRITELPERLPSALQSLDLFHNKISCLPENLPEELRYLSVYDNSIRTLPAHLPSEITHLNVQSNSLTALPETLPPGLKTLEAGENALTSLPASLPPELQVLDVSKNQITVLPETLPPTITTLDVSRNALTNLPENLPAALQIMQASRNNLVRLPESLPHFRGEGPQPTRIIVEYNPFSERTIQNMQRLMSSVDYQGPRVLFAMGDFSIVRVTRPLHQAVQGWLTSLEEEDVNQWRAFEAEANAAAFSGFLDYLGDTQNTRHPDFKEQVSAWLMRLAEDSALRETVFIIAMNATISCEDRVTLAYHQMQEATLVHDAERGAFDSHLAELIMAGREIFRLEQIESLAREKVKRLFFIDEVEVFLGFQNQLRESLSLTTMTRDMRFYNVSGITESDLDEAEIRIKMAENRDFHKWFALWGPWHKVLERIAPEEWREMMAKRDECIETDEYQSRVNAELEDLRIADDSDAERTTEVQMDAERAIGIKIMEEINQTLFTEIMENILLKKEVSSLMSAYWRHHHHHH,have the ability to remove ubiquitin from ubiquitinated UbcH5b in order to form poly-ubiquitin chains of the HA-tagged ubiquitin,–
recombinant IpaH1.4 from Shigella flexneri (protein) MIKSTNIQAIGSGIMHQINNVYSLTPLSLPMELTPSCNEFYLKTWSEWEKNGTPGEQRNIAFNRLKICLQNQEAELNLSELDLKTLPDLPPQITTLEIRKNLLTHLPDLPPMLKVIHAQFNQLESLPALPETLEELNAGDNKIKELPFLPENLTHLRVHNNRLHILPLLPPELKLLVVSGNRLDSIPPFPDKLEGLALANNFIEQLPELPFSMNRAVLMNNNLTTLPESVLRLAQNAFVNVAGNPLSGHTMRTLQQITTGPDYSGPRIFFSMGNSATISAPEHSLADAVTAWFPENKQSDVSQIWHAFEHEEHANTFSAFLDRLSDTVSARNTSGFREQVAAWLEKLSASAELRQQSFAVAADATESCEDRVALTWNNLRKTLLVHQASEGLFDNDTGALLSLGREMFRLEILEDIARDKVRTLHFVDEIEVYLAFQTMLAEKLQLSTAVKEMRFYGVSGVTANDLRTAEAMVRSREENEFTDWFSLWGPWHAVLKRTEADRWAQAEEQKYEMLENEYSQRVADRLKASGLSGDADAEREAGAQVMRETEQQIYRQLTDEVLALRLSENGSNHIAHHHHHH,have the ability to remove ubiquitin from ubiquitinated UbcH5b in order to form poly-ubiquitin chains of the HA-tagged ubiquitin,–
recombinant SspH1 of Salmonella enterica serovar Typhimurium with C-terminal 6x His-tag (protein) MFNIRNTQPSVSMQAIAGAAAPEASPEEIVWEKIQVFFPQENYEEAQQCLAELCHPARGMLPDHISSQFARLKALTFPAWEENIQCNRDGINQFCILDAGSKEILSITLDDAGNYTVNCQGYSEAHDFIMDTEPGEECTEFAEGASGTSLRPATTVSQKAAEYDAVWSKWERDAPAGESPGRAAVVQEMRDCLNNGNPVLNVGASGLTTLPDRLPPHITTLVIPDNNLTSLPELPEGLRELEVSGNLQLTSLPSLPQGLQKLWAYNNWLASLPTLPPGLGDLAVSNNQLTSLPEMPPALRELRVSGNNLTSLPALPSGLQKLWAYNNRLTSLPEMSPGLQELDVSHNQLTRLPQSLTGLSSAARVYLDGNPLSVRTLQALRDIIGHSGIRIHFDMAGPSVPREARALHLAVADWLTSAREGEAAQADRWQAFGLEDNAAAFSLVLDRLRETENFKKDAGFKAQISSWLTQLAEDAALRAKTFAMATEATSTCEDRVTHALHQMNNVQLVHNAEKGEYDNNLQGLVSTGREMFRLATLEQIAREKAGTLALVDDVEVYLAFQNKLKESLELTSVTSEMRFFDVSGVTVSDLQAAELQVKTAENSGFSKWILQWGPLHSVLERKVPERFNALREKQISDYEDTYRKLYDEVLKSSGLVDDTDAERTIGVSAMDSAKKEFLDGLRALVDEVLGSYLTARWRLNHHHHHH,–,"in vitro ubiquitination assay, anti-PKN1 immunoblot [2]: When the reaction was performed in the presence of SspH1 and PKN1 in vitro, anti-PKN1 antibodies detected an additional species migrating at a size >148 kDa; in vitro ubiquitination assay, immunoblots with anti-HA, anti-PKN1 and anti-His antibodies [2]: recombinant SspH1 ubiquitinates PKN1 in vitro; in vitro ubiquitination assay, western blot [1]: recombinant SspH1 has the ability to remove ubiquitin from ubiquitinated UbcH5B, to autoubiquitinate, and to polyubiquitinate Ha-tagged ubiquitin"
recombinant IpaH7.8 from Shigella flexneri (protein) MFSVNNTHSSVSCSPSINSNSTSNEHYLRILTEWEKNSSPGEERGIAFNRLSQCFQNQEAVLNLSDLNLTSLPELPKHISALIVENNKLTSLPKLPAFLKELNADNNRLSVIPELPESLTTLSVRSNQLENLPVLPNHLTSLFVENNRLYNLPALPEKLKFLHVYYNRLTTLPDLPDKLEILCAQRNNLVTFPQFSDRNNIRQKEYYFHFNQITTLPESFSQLDSSYRINISGNPLSTRVLQSLQRLTSSPDYHGPQIYFSMSDGQQNTLHRPLADAVTAWFPENKQSDVSQIWHAFEHEEHANTFSAFLDRLSDTVSARNTSGFREQVAAWLEKLSASAELRQQSFAVAADATESCEDRVALTWNNLRKTLLVHQASEGLFDNDTGALLSLGREMFRLEILEDIARDKVRTLHFVDEIEVYLAFQTMLAEKLQLSTAVKEMRFYGVSGVTANDLRTAEAMVRSREENEFTDWFSLWGPWHAVLKRTEADRWAQAEEQKYEMLENEYSQRVADRLKASGLSGDADAEREAGAQVMRETEQQIYRQLTDEVLALRLSENGSRLHHSHHHHHH,have the ability to remove ubiquitin from ubiquitinated UbcH5b in order to form poly-ubiquitin chains of the HA-tagged ubiquitin,–
recombinant IpaH4.5 from Shigella flexneri (protein) MKPINNHSFFRSLCGLSCISRLSVEEQCTRDYHRIWDDWAREGTTTENRIQAVRLLKICLDTREPVLNLSLLKLRSLPPLPLHIRELNISNNELISLPENSPLLTELHVNGNNLNILPTLPSQLIKLNISFNRNLSCLPSLPPYLQSLSARFNSLETLPELPSTLTILRIEGNRLTVLPELPHRLQELFVSGNRLQELPEFPQSLKYLKVGENQLRRLSRLPQELLALDVSNNLLTSLPENIITLPICTNVNISGNPLSTHVLQSLQRLTSSPDYHGPQIYFSMSDGQQNTLHRPLADAVTAWFPENKQSDVSQIWHAFEHEEHANTFSAFLDRLSDTVSARNTSGFREQVAAWLEKLSASAELRQQSFAVAADATESCEDRVALTWNNLRKTLLVHQASEGLFDNDTGALLSLGREMFRLEILEDIARDKVRTLHFVDEIEVYLAFQTMLAEKLQLSTAVKEMRFYGVSGVTANDLRTAEAMVRSREENEFTDWFSLWGPWHAVLKRTEADRWAQAEEQKYEMLENEYSQRVADRLKASGLSGDADAEREAGAQVMRETEQQIYRQLTDEVLAHHHHHH,have the ability to remove ubiquitin from ubiquitinated UbcH5b in order to form poly-ubiquitin chains of the HA-tagged ubiquitin,–
